Reference: PMC8686763, “Pre-Steady-State Kinetics of the SARS-CoV-2 Main Protease as a Powerful Tool for Antiviral Drug Discovery” (Frontiers in Pharmacology, 2021)

Target: FRET substrate Dabcyl-[…]-E(Edans)-NH2 (SARS-CoV-2)
Assay: stopped-flow fluorescence kinetics (FRET signal of the Edans/Dabcyl peptide)

With “SARS-CoV-2 main protease, catalytically inactive mutant C145A (enzyme)” as the substance, how does the Ka read?
Its Ka is 1.6e+06 M⁻¹.

What about the Kd of the same substance?
Its Kd is 600 nM.

And the koff?
The koff was 0.18 s⁻¹.

And the kon?
Its kon is 280000 M⁻¹ s⁻¹.
